Substitutions are numbered along the chain they refer to. In names and notes the source's numbering stands.
T1: FcγRIIa H (human, UniProt P12318 34-217)
T1 construct: extracellular domain; also called FcgRIIa H type; 2aH
T1 sequence (looked up): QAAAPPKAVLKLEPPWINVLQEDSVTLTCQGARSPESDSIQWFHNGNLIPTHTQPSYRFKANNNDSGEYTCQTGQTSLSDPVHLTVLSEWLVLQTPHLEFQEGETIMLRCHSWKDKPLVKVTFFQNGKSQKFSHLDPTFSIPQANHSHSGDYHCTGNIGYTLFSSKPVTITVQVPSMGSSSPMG

T2: FcγRIIa R (extracellular domain, C-terminal His tag) (human, UniProt P12318 34-217)
T2 construct: extracellular domain; also called FcgRIIa R type; 2aR; not shown: His tag attached to the C terminus
T2 sequence (looked up): T1 sequence (looked up) with H134R

T3: FcγRIIb extracellular domain with C-terminal His tag (human, UniProt P31994 43-217)
T3 construct: extracellular domain; also called FcgRIIb; 2b; not shown: His tag at the C terminus
T3 sequence (looked up): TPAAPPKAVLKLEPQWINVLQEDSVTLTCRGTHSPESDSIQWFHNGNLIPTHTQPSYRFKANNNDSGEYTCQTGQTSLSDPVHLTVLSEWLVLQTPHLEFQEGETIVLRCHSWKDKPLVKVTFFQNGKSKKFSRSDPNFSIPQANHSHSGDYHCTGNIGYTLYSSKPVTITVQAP

T4: FcγRIIb (human, UniProt P31994 43-217)
T4 construct: extracellular domain; also called FcgRIIb; 2b
T4 sequence (looked up): T3 sequence (looked up)

T5: FcγRIIb (extracellular domain, C-terminal His tag) (human, UniProt P31994 43-217)
T5 construct: extracellular domain; also called FcgRIIb; 2b; not shown: His tag attached to the C terminus
T5 sequence (looked up): T3 sequence (looked up)

B1: GpH7-A5/GpH7-B3 variant D265_11K/GpL16-k0 (antibody, human IgG1, kappa)
heavy 1: not shown
heavy 2: not shown
light: DIVMTQSPLSLPVTPGEPASISCQASESLVHSNRNTYLHWYLQKPGQSPQLLIYKVSNRFSGVPDRFSGSGSGTDFTLKISRVEAEDVGVYYCSQNTHVPPTFGQGTKVEIERTVAAPSVFIFPPSDEQLKSGTASVVCLLNNFYPREAKVQWKVDNALQSGNSQESVTEQDSKDSTYSLSSTLTLSKADYEKHKVYACEVTHQGLSSPVTKSFNRGEC
notes: Heterodimerized anti-glypican-3 IgG1; substitution in only one H chain (the GpH7-B3 chain); also called He Ab
B2: GpH7-A5/GpH7-B3 variant D265_12R/GpL16-k0 (antibody, human IgG1, kappa)
heavy 1: not shown
heavy 2: not shown
light: B1 light
notes: as for B1
B3: GpH7-A5/GpH7-B3 variant D265_19Q/GpL16-k0 (antibody, human IgG1, kappa)
heavy 1: not shown
heavy 2: not shown
light: B1 light
notes: as for B1
B4: GpH7-A5/GpH7-B3 variant S239_04F/GpL16-k0 (antibody, human IgG1, kappa)
heavy 1: not shown
heavy 2: not shown
light: B1 light
notes: Heterodimerized anti-glypican-3 IgG1; also called He Ab
B5: GpH7-A5/GpH7-B3 variant S239_11K/GpL16-k0 (antibody, human IgG1, kappa)
heavy 1: not shown
heavy 2: not shown
light: B1 light
notes: Heterodimerized anti-glypican-3 IgG1; alteration in only one H chain (GpH7-B3 side); also called He Ab
B6: GpH7-A5/GpH7-B3 variant S239_15Y/GpL16-k0 (antibody, human IgG1, kappa)
heavy 1: not shown
heavy 2: not shown
light: B1 light
notes: as for B5
B7: GpH7-A5/GpH7-B3 variant S239_16H/GpL16-k0 (antibody, human IgG1, kappa)
heavy 1: not shown
heavy 2: not shown
light: B1 light
notes: as for B5
B8: GpH7-A5/GpH7-B3 variant S239_12R/GpL16-k0 (antibody, human IgG1, kappa)
heavy 1: not shown
heavy 2: not shown
light: B1 light
notes: as for B5
B9: GpH7-A5/GpH7-B3 variant D270_01G/GpL16-k0 (antibody, human IgG1, kappa)
heavy 1: not shown
heavy 2: not shown
light: B1 light
notes: He Ab: the mutation stands only in the GpH7-B3-derived H chain; also called He Ab D270G
B10: GpH7-A5/GpH7-B3 variant D270_08L/GpL16-k0 (antibody, human IgG1, kappa)
heavy 1: not shown
heavy 2: not shown
light: B1 light
notes: He Ab: the mutation stands only in the GpH7-B3-derived H chain; also called He Ab D270L
B11: GpH7-A5/GpH7-B3 variant D270_06M/GpL16-k0 (antibody, human IgG1, kappa)
heavy 1: not shown
heavy 2: not shown
light: B1 light
notes: He Ab: the mutation stands only in the GpH7-B3-derived H chain; also called He Ab D270M
B12: GpH7-A5/GpH7-B3 variant D270_10E/GpL16-k0 (antibody, human IgG1, kappa)
heavy 1: not shown
heavy 2: not shown
light: B1 light
notes: He Ab: the mutation stands only in the GpH7-B3-derived H chain; also called He Ab D270E
B13: GpH7-A5/GpH7-B3 variant D270_11K/GpL16-k0 (antibody, human IgG1, kappa)
heavy 1: not shown
heavy 2: not shown
light: B1 light
notes: He Ab: the mutation stands only in the GpH7-B3-derived H chain; also called He Ab D270K
B14: GpH7-A5/GpH7-B3 variant D270_07I/GpL16-k0 (antibody, human IgG1, kappa)
heavy 1: not shown
heavy 2: not shown
light: B1 light
notes: He Ab: the mutation stands only in the GpH7-B3-derived H chain; also called He Ab D270I
B15: GpH7-A5/GpH7-B3 variant D270_03V/GpL16-k0 (antibody, human IgG1, kappa)
heavy 1: not shown
heavy 2: not shown
light: B1 light
notes: He Ab: the mutation stands only in the GpH7-B3-derived H chain; also called He Ab D270V

target: T1, FcγRIIa H; assay: ratio of He/Con_2aH to He/Con_2b (relative SPR binding to FcγRIIa H over that of the same antibody to FcγRIIb)

Row | He_2aH/2b (IIaH/IIb) | Binder
1 | 1.87 | B1
2 | 1.87 | B2
3 | 1.43 | B3

target: T2, FcγRIIa R (extracellular domain, …); assay: ratio of He/Con_2aR to He/Con_2b (FcγRIIb); SPR relative binding
Method: (§1) The heterodimerized antibodies He Abs in which one of the H chains was introduced with an alteration were assayed for their binding activities to each activating FcγR and inhibitory FcγR according to the method described in Example 4. […] The activating FcγRs in FIGS. 26, 27, 28, and 29 are FcγRIa, FcγRIIa (R), FcγRIIa (H), and FcγRIIIa, respectively.
(§2) Analysis of interaction between objective antibody and the FcγR was carried out using Biacore T100 (GE Healthcare). HBS-EP+ (GE Healthcare) was used as the running buffer, and the measurement temperature was set to 25° C. Chips produced by immobilizing the antigen peptide by the amine coupling method to a Series S Sencor Chip CM5 (GE Healthcare), or alternatively, chips produced by allowing preliminarily biotinylated antigen peptides to interact with and immobilize onto a Series S Sensor Chip SA (certified) (GE Healthcare) were used. Antibodies of interest were captured onto an antigen peptide-immobilized chip, and allowed to interact to each FcγR diluted with running buffer. To regenerate and repeatedly use the chip, the antibodies captured on the chip were washed off by reacting 10 mM glycine-HCl, pH 1.5.

Row | He_2aR/2b (IIaR/IIb) | Binder
4 | 1.24 | B4
5 | 1.96 | B5
6 | 1.21 | B6
7 | 1.4 | B7
8 | 1.38 | B8

target: T6, FcγRIIIa extracellular domain with C-terminal His tag (human, UniProt P08637 17-208); assay: ratio of He/Con_3a to He/Con_2b (FcγRIIIa over FcγRIIb), SPR relative binding
T6 construct: extracellular domain; also called FcgRIIIa; 3a; not shown: His tag at the C terminus
T6 sequence (P08637 17-208): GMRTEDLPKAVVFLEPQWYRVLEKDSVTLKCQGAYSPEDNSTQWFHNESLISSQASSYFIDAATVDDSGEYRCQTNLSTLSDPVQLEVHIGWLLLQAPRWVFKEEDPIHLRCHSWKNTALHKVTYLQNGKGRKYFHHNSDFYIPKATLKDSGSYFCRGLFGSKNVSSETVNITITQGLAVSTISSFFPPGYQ
Method: as §1, §2

Row | IIIa/IIb (He_3a/2b) | Binder
9 | 1.26 | B9
10 | 1.34 | B10
11 | 1.38 | B11
12 | 1.61 | B12
13 | 2.02 | B13
14 | 1.68 | B14
15 | 1.52 | B15

target: T6, FcγRIIIa extracellular domain with …; assay: SPR (Biacore), antibody captured via antigen peptide, FcγR as analyte; binding relative to GpH7-A5/GpH7-B3/GpL16-k0 = 100

Row | He/Con_3a | Binder
16 | 38.5 relative (control = 100) | B9
17 | 71.8 relative (control = 100) | B10
18 | 66.3 relative (control = 100) | B11
19 | 123 relative (control = 100) | B12
20 | 41 relative (control = 100) | B13
21 | 69.6 relative (control = 100) | B14
22 | 60.3 relative (control = 100) | B15

target: T3, FcγRIIb extracellular domain with …; assay: as above

Row | He/Con_2b | Binder
23 | 30.5 relative (control = 100) | B9
24 | 53.6 relative (control = 100) | B10
25 | 48.2 relative (control = 100) | B11
26 | 76.5 relative (control = 100) | B12
27 | 20.3 relative (control = 100) | B13
28 | 41.5 relative (control = 100) | B14
29 | 39.5 relative (control = 100) | B15

target: T1, FcγRIIa H; assay: SPR (Biacore), antibody captured on antigen-peptide chip, FcγR as analyte; binding relative to GpH7-A5/GpH7-B3/GpL16-k0 = 100

Row | He/Con_2aH | Binder
30 | 27.8 % of HeCon Ab | B1
31 | 28 % of HeCon Ab | B2
32 | 47.7 % of HeCon Ab | B3

target: T4, FcγRIIb; assay: as above

Row | He/Con_2b | Binder
33 | 14.9 % of HeCon Ab | B1
34 | 15 % of HeCon Ab | B2
35 | 33.4 % of HeCon Ab | B3

target: T2, FcγRIIa R (extracellular domain, …); assay: SPR (Biacore), antibody captured on antigen-peptide chip, FcγR as analyte; relative binding amount
Method: as §1, §2

Row | He/Con_2aR | Binder
36 | 54.8 % of control (GpH7-A5/GpH7-B3/GpL16-k0 = 100) | B4
37 | 48.5 % of control (GpH7-A5/GpH7-B3/GpL16-k0 = 100) | B5
38 | 42.2 % of control (GpH7-A5/GpH7-B3/GpL16-k0 = 100) | B6
39 | 69.2 % of control (GpH7-A5/GpH7-B3/GpL16-k0 = 100) | B7
40 | 53.9 % of control (GpH7-A5/GpH7-B3/GpL16-k0 = 100) | B8

target: T5, FcγRIIb (extracellular domain, …); assay: as above
Method: as §1, §2

Row | He/Con_2b | Binder
41 | 44.1 % of control (GpH7-A5/GpH7-B3/GpL16-k0 = 100) | B4
42 | 24.7 % of control (GpH7-A5/GpH7-B3/GpL16-k0 = 100) | B5
43 | 34.9 % of control (GpH7-A5/GpH7-B3/GpL16-k0 = 100) | B6
44 | 49.4 % of control (GpH7-A5/GpH7-B3/GpL16-k0 = 100) | B7
45 | 39.1 % of control (GpH7-A5/GpH7-B3/GpL16-k0 = 100) | B8
